The record followed here is patent US20230295310A1 (ABCELLERA BIOLOGICS, published 2023).

Numbering of substitutions follows the chain as printed.

The assay addresses EGFR on HeLa cells (UniProt P00533 25-1210, limits assumed). Briefly: cell-based or functional assay.

B1: GOMP001_bsAb_040 (bispecific antibody, human IgG1, kappa, L234A L235A)
heavy 1: EVQLVESGGGLVKTGGSHRLSCVASGFSFKKAWMNWVRKAPGKGLEWVGRIKRNSDGGTTDYAAEVKGRFILSRDDSKNTLYLQMNSLKTEDTAVYYCTTLDSSSWYVGYYYMDVWGKGTTVTVSSASTKGPSVFPLAPSSKSTSGGTAALGCLVADYFPEPVTVSWNSGALTSGVHTFPAVLQSSGLYSLSSVVTVPSSSLGTQTYICNVNHKPSNTKVDEKVEPKSCDKTHTCPPCPAPEAAGGPSVFLFPPKPKDTLMISRTPEVTCVVVDVSHEDPEVKFNWYVDGVEVHNAKTKPREEQYNSTYRVVSVLTVLHQDWLNGKEYKCKVSNKALPAPIEKTISKAKGQPREPQVYTLPPSREEMTDNQVSLTCLVKGFYPSDIAVEWESNGQPENNYKTTPPVLMSDGSFFLASKLTVDKSRWQQGNVFSCSVMHEALHNHYTQKSLSLSPG
light 1: RIQMTQSPSSVSASVGDRVTITCRASQDINNWLAWYQDKPGKAPKILIYTASNLQSGVPSRFSGSGSGTDFTLTISSLQPEDFATYFCQQAHSLPITFGQGTRLEIKRTVAAPSVFIFPPSDKQLKSGTARVVCLLNNFYPREAKVQWKVDNALQSGNSQESVTEQDSKDSTYSLSSTLTLSKADYEKHKVYACEVTHQGLSSPVTKSFNRGEC
heavy 2: QVQLVQSGAEVKKPGASVKVSCKASGYTFTSHWMHWVRYAPGQGLEWIGEFNPSNGRTNYNEKFKSKATMTVDTSTNTAYMELSSLRSEDTAVYYCASRDYDYDGRYFDYWGRGTLVTVSSASTKGPSVFPLAPSSKSTSGGTAALGCLVKDYFPEPVTVSWNSGALTSGVHTFPAVLQSSGLYSLSSVVTVPSSSLGTQTYICNVNHKPSNTKVDKKVEPKSCDKTHTCPPCPAPEAAGGPSVFLFPPKPKDTLMISRTPEVTCVVVDVSHEDPEVKFNWYVDGVEVHNAKTKPREEQYNSTYRVVSVLTVLHQDWLNGKEYKCKVSNKALPAPIEKTISKAKGQPRRPRVYTLPPSREEMTKNQVSLVCLVKGFYPSDIAVEWESNGQPENNYKTTPPVLDSDGSFFLYSVLTVDKSRWQQGNVFSCSVMHEALHNHYTQKSLSLSPG
light 2: DIQMTQSPSSLSASVGDRVTITCSASSSVTYMYWYQRKPGDAPKLLIYDTSNLASGVPSRFSGSGSGTDYTFTISSLQPEDIATYYCQQWSSHIFTFGQGTKVEIKRTVAAPSVFIFPPSDEQLKSGTASVVCLLNNFYPREAKVQWKVDNALQSGNSQESVTEQDSKDSTYSLSSTLTLSKADYEKHKVYACEVTHQGLSSPVTKSFNRGEC
On to B1, for which the Max killing % was found to be 89.5% and the “X… HeLa EC50” value was determined as 0.0391 nM.

B2: GOMP001_bsAb_041 (bispecific antibody, human IgG1, kappa, L234A L235A)
heavy 1: QVQLVQSGAEVKKPGASVKVSCKASGYTFTSHWMHWVRKAPGQGLEWIGEFNPSNGRTNYNEEFKSKATMTVDTSTNTAYMELSSLRSEDTAVYYCASRDYDYDGRYFDYWGQGTLVTVSSASTKGPSVFPLAPSSKSTSGGTAALGCLVADYFPEPVTVSWNSGALTSGVHTFPAVLQSSGLYSLSSVVTVPSSSLGTQTYICNVNHKPSNTKVDEKVEPKSCDKTHTCPPCPAPEAAGGPSVFLFPPKPKDTLMISRTPEVTCVVVDVSHEDPEVKFNWYVDGVEVHNAKTKPREEQYNSTYRVVSVLTVLHQDWLNGKEYKCKVSNKALPAPIEKTISKAKGQPREPQVYTLPPSREEMTDNQVSLTCLVKGFYPSDIAVEWESNGQPENNYKTTPPVLMSDGSFFLASKLTVDKSRWQQGNVFSCSVMHEALHNHYTQKSLSLSPG
light 1: B1 light 2 with D1R, R37D, D41K, E122K, S130R
heavy 2: EVQLVESGGGLVKTGGSLRLSCVASGFSFKKAWMNWVRYAPGKGLEWVGRIKRNTDGGPADYAARVKGRFTLSRDDSKKTLYLQMNSLKTEDTAVYYCTTLDSSSWYVGYYYMDVWGRGTTVTVSSASTKGPSVFPLAPSSKSTSGGTAALGCLVKDYFPEPVTVSWNSGALTSGVHTFPAVLQSSGLYSLSSVVTVPSSSLGTQTYICNVNHKPSNTKVDKKVEPKSCDKTHTCPPCPAPEAAGGPSVFLFPPKPKDTLMISRTPEVTCVVVDVSHEDPEVKFNWYVDGVEVHNAKTKPREEQYNSTYRVVSVLTVLHQDWLNGKEYKCKVSNKALPAPIEKTISKAKGQPRRPRVYTLPPSREEMTKNQVSLVCLVKGFYPSDIAVEWESNGQPENNYKTTPPVLDSDGSFFLYSVLTVDKSRWQQGNVFSCSVMHEALHNHYTQKSLSLSPG
light 2: DIQMTQSPSSVSASVGDRVIITCRASQDINNWLAWYLRRPGDAPKLLIYAASSLQSGVPSRFSGSGSGTDFTLTIGSLQPEDFATYYCQQAHSLPITFGQGTRLEIQRTVAAPSVFIFPPSDEQLKSGTASVVCLLNNFYPREAKVQWKVDNALQSGNSQESVTEQDSKDSTYSLSSTLTLSKADYEKHKVYACEVTHQGLSSPVTKSFNRGEC
On to B2, for which the Max killing % amounted to 78.6% and the “X… HeLa EC50” value amounted to 0.449 nM.

B3: GOMP001_bsAb_042 (bispecific antibody, human IgG1, kappa, L234A L235A)
heavy 1: B1 heavy 1 with H18L, S55T, T59P, T60A, I71T, N79K
light 1: B2 light 2 with D1R, R38D, D42K, E123K, S131R
heavy 2: B1 heavy 2
light 2: B1 light 2
As for B3, the Max killing % was 84.8% and the “X… HeLa EC50” value amounted to 0.0341 nM.

B4: GOMP001_bsAb_044 (bispecific antibody, human IgG1, kappa, L234A L235A)
heavy 1: B1 heavy 1 with H18L, S55T, T60A, I71T, N79K, Y82F, W106Y
light 1: B1 light 1 with I46L, N53S, S76G, F87Y
heavy 2: B1 heavy 2
light 2: B1 light 2
Turning to B4, the Max killing % is 84.1% and the “X… HeLa EC50” value worked out at 0.0201 nM.

B5: GOMP001_bsAb_043 (bispecific antibody, human IgG1, kappa, L234A L235A)
heavy 1: B2 heavy 1
light 1: B1 light 2 with D1R, R37D, D41K, E122K, S130R
heavy 2: B2 heavy 2 with P59T, Y82F, W106Y
light 2: B2 light 2 with I20T, L37Q, R39K, A50T, Q107K
Take B5: the Max killing % came to 76.2% and the “X… HeLa EC50” value came out at 0.102 nM.
